Literature values, collected in patent publication US20200216492A1, “USE OF C-TERMINALLY EXTENDED PEPTIDES TO DISRUPT INHIBITOR NK CELL RECEPTOR INTERACTIONS WITH MHC I” (La Jolla Institute for Allergy and Immunology, priority 2016, published 2020).

Target: HLA-B*57:01 (Homo sapiens, UniProt P01889, D201E/D98Y/E176V/E187L/E204Q/E69M/E70A/G107R/I90N/K202T/L105A/L119I/N104I/N87E/Q89R/Q94S/R106L/R155S/R180L/R86G/S101N/S121V/S35A/S48A/T118I/V36M/Y140S/Y91M)
Conditions: previously determined; read-out: binding affinity KD to HLA-B*57:01

B1: KIR3DL1: inhibitory killer immunoglobulin receptor on NK cells binding HLA-B*57:01 (protein, UniProt P43629 22-444, looked up)
Killer cell …: HMGGQDKPFLSAWPSAVVPRGGHVTLRCHYRHRFNNFMLYKEDRIHIPIFHGRIFQESFNMSPVTTAHAGNYTCRGSHPHSPTGWSAPSNPVVIMVTGNHRKPSLLAHPGPLVKSGERVILQCWSDIMFEHFFLHKEGISKDPSRLVGQIHDGVSKANFSIGPMMLALAGTYRCYGSVTHTPYQLSAPSDPLDIVVTGPYEKPSLSAQPGPKVQAGESVTLSCSSRSSYDMYHLSREGGAHERRLPAVRKVNRTFQADFPLGPATHGGTYRCFGSFRHSPYEWSDPSDPLLVSVTGNPSSSWPSPTEPSSKSGNPRHLHILIGTSVVIILFILLLFFLLHLWCSNKKNAAVMDQEPAGNRTANSEDSDEQDPEEVTYAQLDHCVFTQRKITRPSQRPKTPPTDTILYTELPNAKPRSKVVSCP
For B1, the Kd is listed as 17 µM.
